From US20220298218A1 (ANTAG THERAPEUTICS, published 2022)
Where no end group is shown, it is not given here. The star is where a group is joined. C16 diacid = O=C(O)CCCCCCCCCCCCCCC(=O)*

The binders below were run against T1, human GIP receptor (human, UniProt P48546 22-466) (assay: cell-based or functional assay).
T1 sequence (looked up): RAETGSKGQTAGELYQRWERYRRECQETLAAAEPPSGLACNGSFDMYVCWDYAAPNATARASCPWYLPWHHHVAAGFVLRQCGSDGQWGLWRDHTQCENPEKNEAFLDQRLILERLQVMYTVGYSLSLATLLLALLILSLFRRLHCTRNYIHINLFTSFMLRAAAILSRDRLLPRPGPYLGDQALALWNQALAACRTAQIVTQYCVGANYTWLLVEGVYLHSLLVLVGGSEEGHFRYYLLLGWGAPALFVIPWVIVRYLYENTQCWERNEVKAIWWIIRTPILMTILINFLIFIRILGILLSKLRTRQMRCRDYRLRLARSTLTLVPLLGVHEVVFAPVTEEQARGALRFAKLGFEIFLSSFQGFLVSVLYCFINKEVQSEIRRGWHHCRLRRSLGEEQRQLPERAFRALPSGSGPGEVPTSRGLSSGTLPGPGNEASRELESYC

Binder	cAMP antagonism	cAMP antagonism % inhib	cAMP antagonism log
TFISDYKIAMDKIHQQDFVNWLLAQKGKKNDWKHNIT (HELM PEPTIDE1{T.F.I.S.D.Y.K.I.A.M.D.K.I.H.Q.Q.D.F.V.N.W.L.L.A.Q.K.G.K.K.N.D.W.K.H.N.I.T}|PEPTIDE2{[O=C(O)CCCCCCCCCCCCCCC(=O)[*:2]].[gGlu]}$PEPTIDE1,PEPTIDE2,7:R3-2:R2$$$V2.0; N-terminus assumed; SMILES CC[C@H](C)[C@H](NC(=O)[C@H](CCCCNC(=O)CC[C@H](NC(=O)CCCCCCCCCCCCCCC(=O)O)C(=O)O)NC(=O)[C@H](Cc1ccc(O)cc1)NC(=O)[C@H](CC(=O)O)NC(=O)[C@H](CO)NC(=O)[C@@H](NC(=O)[C@H](Cc1ccccc1)NC(=O)[C@@H](N)[C@@H](C)O)[C@@H](C)CC)C(=O)N[C@@H](C)C(=O)N[C@@H](CCSC)C(=O)N[C@@H](CC(=O)O)C(=O)N[C@@H](CCCCN)C(=O)N[C@H](C(=O)N[C@@H](Cc1c[nH]cn1)C(=O)N[C@@H](CCC(N)=O)C(=O)N[C@@H](CCC(N)=O)C(=O)N[C@@H](CC(=O)O)C(=O)N[C@@H](Cc1ccccc1)C(=O)N[C@H](C(=O)N[C@@H](CC(N)=O)C(=O)N[C@@H](Cc1c[nH]c2ccccc12)C(=O)N[C@@H](CC(C)C)C(=O)N[C@@H](CC(C)C)C(=O)N[C@@H](C)C(=O)N[C@@H](CCC(N)=O)C(=O)N[C@@H](CCCCN)C(=O)NCC(=O)N[C@@H](CCCCN)C(=O)N[C@@H](CCCCN)C(=O)N[C@@H](CC(N)=O)C(=O)N[C@@H](CC(=O)O)C(=O)N[C@@H](Cc1c[nH]c2ccccc12)C(=O)N[C@@H](CCCCN)C(=O)N[C@@H](Cc1c[nH]cn1)C(=O)N[C@@H](CC(N)=O)C(=O)N[C@H](C(=O)N[C@H](C(=O)O)[C@@H](C)O)[C@@H](C)CC)C(C)C)[C@@H](C)CC) [AT462]	37 nM	85%	-7.4 log M
FISDYSIAMDKIK(C16 diacid)QQDFVNWLLAQKGKK-OH (N-terminus assumed; SMILES CC[C@H](C)[C@H](NC(=O)[C@H](CO)NC(=O)[C@H](Cc1ccc(O)cc1)NC(=O)[C@H](CC(=O)O)NC(=O)[C@H](CO)NC(=O)[C@@H](NC(=O)[C@@H](N)Cc1ccccc1)[C@@H](C)CC)C(=O)N[C@@H](C)C(=O)N[C@@H](CCSC)C(=O)N[C@@H](CC(=O)O)C(=O)N[C@@H](CCCCN)C(=O)N[C@H](C(=O)N[C@@H](CCCCNC(=O)CCCCCCCCCCCCCCC(=O)O)C(=O)N[C@@H](CCC(N)=O)C(=O)N[C@@H](CCC(N)=O)C(=O)N[C@@H](CC(=O)O)C(=O)N[C@@H](Cc1ccccc1)C(=O)N[C@H](C(=O)N[C@@H](CC(N)=O)C(=O)N[C@@H](Cc1c[nH]c2ccccc12)C(=O)N[C@@H](CC(C)C)C(=O)N[C@@H](CC(C)C)C(=O)N[C@@H](C)C(=O)N[C@@H](CCC(N)=O)C(=O)N[C@@H](CCCCN)C(=O)NCC(=O)N[C@@H](CCCCN)C(=O)N[C@@H](CCCCN)C(=O)O)C(C)C)[C@@H](C)CC) [AT463]	14 nM	88%	-7.8 log M
TFISDYKIAMDKIHQQDFVNWLLAQKGKKNDWK (HELM PEPTIDE1{T.F.I.S.D.Y.K.I.A.M.D.K.I.H.Q.Q.D.F.V.N.W.L.L.A.Q.K.G.K.K.N.D.W.K}|PEPTIDE2{[O=C(O)CCCCCCCCCCCCCCC(=O)[*:2]].[gGlu]}$PEPTIDE1,PEPTIDE2,7:R3-2:R2$$$V2.0; N-terminus assumed; SMILES CC[C@H](C)[C@H](NC(=O)[C@H](CCCCNC(=O)CC[C@H](NC(=O)CCCCCCCCCCCCCCC(=O)O)C(=O)O)NC(=O)[C@H](Cc1ccc(O)cc1)NC(=O)[C@H](CC(=O)O)NC(=O)[C@H](CO)NC(=O)[C@@H](NC(=O)[C@H](Cc1ccccc1)NC(=O)[C@@H](N)[C@@H](C)O)[C@@H](C)CC)C(=O)N[C@@H](C)C(=O)N[C@@H](CCSC)C(=O)N[C@@H](CC(=O)O)C(=O)N[C@@H](CCCCN)C(=O)N[C@H](C(=O)N[C@@H](Cc1c[nH]cn1)C(=O)N[C@@H](CCC(N)=O)C(=O)N[C@@H](CCC(N)=O)C(=O)N[C@@H](CC(=O)O)C(=O)N[C@@H](Cc1ccccc1)C(=O)N[C@H](C(=O)N[C@@H](CC(N)=O)C(=O)N[C@@H](Cc1c[nH]c2ccccc12)C(=O)N[C@@H](CC(C)C)C(=O)N[C@@H](CC(C)C)C(=O)N[C@@H](C)C(=O)N[C@@H](CCC(N)=O)C(=O)N[C@@H](CCCCN)C(=O)NCC(=O)N[C@@H](CCCCN)C(=O)N[C@@H](CCCCN)C(=O)N[C@@H](CC(N)=O)C(=O)N[C@@H](CC(=O)O)C(=O)N[C@@H](Cc1c[nH]c2ccccc12)C(=O)N[C@@H](CCCCN)C(=O)O)C(C)C)[C@@H](C)CC) [AT459]	31 nM	88%	-7.5 log M
TFISDYKIAMDKIHQQDFVNWLLAQKGKKNDWKHNI (HELM PEPTIDE1{T.F.I.S.D.Y.K.I.A.M.D.K.I.H.Q.Q.D.F.V.N.W.L.L.A.Q.K.G.K.K.N.D.W.K.H.N.I}|PEPTIDE2{[O=C(O)CCCCCCCCCCCCCCC(=O)[*:2]].[gGlu]}$PEPTIDE1,PEPTIDE2,7:R3-2:R2$$$V2.0; N-terminus assumed; SMILES CC[C@H](C)[C@H](NC(=O)[C@H](CC(N)=O)NC(=O)[C@H](Cc1c[nH]cn1)NC(=O)[C@H](CCCCN)NC(=O)[C@H](Cc1c[nH]c2ccccc12)NC(=O)[C@H](CC(=O)O)NC(=O)[C@H](CC(N)=O)NC(=O)[C@H](CCCCN)NC(=O)[C@H](CCCCN)NC(=O)CNC(=O)[C@H](CCCCN)NC(=O)[C@H](CCC(N)=O)NC(=O)[C@H](C)NC(=O)[C@H](CC(C)C)NC(=O)[C@H](CC(C)C)NC(=O)[C@H](Cc1c[nH]c2ccccc12)NC(=O)[C@H](CC(N)=O)NC(=O)[C@@H](NC(=O)[C@H](Cc1ccccc1)NC(=O)[C@H](CC(=O)O)NC(=O)[C@H](CCC(N)=O)NC(=O)[C@H](CCC(N)=O)NC(=O)[C@H](Cc1c[nH]cn1)NC(=O)[C@@H](NC(=O)[C@H](CCCCN)NC(=O)[C@H](CC(=O)O)NC(=O)[C@H](CCSC)NC(=O)[C@H](C)NC(=O)[C@@H](NC(=O)[C@H](CCCCNC(=O)CC[C@H](NC(=O)CCCCCCCCCCCCCCC(=O)O)C(=O)O)NC(=O)[C@H](Cc1ccc(O)cc1)NC(=O)[C@H](CC(=O)O)NC(=O)[C@H](CO)NC(=O)[C@@H](NC(=O)[C@H](Cc1ccccc1)NC(=O)[C@@H](N)[C@@H](C)O)[C@@H](C)CC)[C@@H](C)CC)[C@@H](C)CC)C(C)C)C(=O)O) [AT461]	23 nM	100%	-7.6 log M
TFISDYKIAMDKIHQQDFVNWLLAQKGKKNDWKH (HELM PEPTIDE1{T.F.I.S.D.Y.K.I.A.M.D.K.I.H.Q.Q.D.F.V.N.W.L.L.A.Q.K.G.K.K.N.D.W.K.H}|PEPTIDE2{[O=C(O)CCCCCCCCCCCCCCC(=O)[*:2]].[gGlu]}$PEPTIDE1,PEPTIDE2,7:R3-2:R2$$$V2.0; N-terminus assumed; SMILES CC[C@H](C)[C@H](NC(=O)[C@H](CCCCNC(=O)CC[C@H](NC(=O)CCCCCCCCCCCCCCC(=O)O)C(=O)O)NC(=O)[C@H](Cc1ccc(O)cc1)NC(=O)[C@H](CC(=O)O)NC(=O)[C@H](CO)NC(=O)[C@@H](NC(=O)[C@H](Cc1ccccc1)NC(=O)[C@@H](N)[C@@H](C)O)[C@@H](C)CC)C(=O)N[C@@H](C)C(=O)N[C@@H](CCSC)C(=O)N[C@@H](CC(=O)O)C(=O)N[C@@H](CCCCN)C(=O)N[C@H](C(=O)N[C@@H](Cc1c[nH]cn1)C(=O)N[C@@H](CCC(N)=O)C(=O)N[C@@H](CCC(N)=O)C(=O)N[C@@H](CC(=O)O)C(=O)N[C@@H](Cc1ccccc1)C(=O)N[C@H](C(=O)N[C@@H](CC(N)=O)C(=O)N[C@@H](Cc1c[nH]c2ccccc12)C(=O)N[C@@H](CC(C)C)C(=O)N[C@@H](CC(C)C)C(=O)N[C@@H](C)C(=O)N[C@@H](CCC(N)=O)C(=O)N[C@@H](CCCCN)C(=O)NCC(=O)N[C@@H](CCCCN)C(=O)N[C@@H](CCCCN)C(=O)N[C@@H](CC(N)=O)C(=O)N[C@@H](CC(=O)O)C(=O)N[C@@H](Cc1c[nH]c2ccccc12)C(=O)N[C@@H](CCCCN)C(=O)N[C@@H](Cc1c[nH]cn1)C(=O)O)C(C)C)[C@@H](C)CC) [AT460]	40 nM	100%	-7.4 log M
TFISDYKIAMDKIHQQDFVNWLLAQKGKKND (HELM PEPTIDE1{T.F.I.S.D.Y.K.I.A.M.D.K.I.H.Q.Q.D.F.V.N.W.L.L.A.Q.K.G.K.K.N.D}|PEPTIDE2{[O=C(O)CCCCCCCCCCCCCCC(=O)[*:2]].[gGlu]}$PEPTIDE1,PEPTIDE2,7:R3-2:R2$$$V2.0; N-terminus assumed; SMILES CC[C@H](C)[C@H](NC(=O)[C@H](CCCCNC(=O)CC[C@H](NC(=O)CCCCCCCCCCCCCCC(=O)O)C(=O)O)NC(=O)[C@H](Cc1ccc(O)cc1)NC(=O)[C@H](CC(=O)O)NC(=O)[C@H](CO)NC(=O)[C@@H](NC(=O)[C@H](Cc1ccccc1)NC(=O)[C@@H](N)[C@@H](C)O)[C@@H](C)CC)C(=O)N[C@@H](C)C(=O)N[C@@H](CCSC)C(=O)N[C@@H](CC(=O)O)C(=O)N[C@@H](CCCCN)C(=O)N[C@H](C(=O)N[C@@H](Cc1c[nH]cn1)C(=O)N[C@@H](CCC(N)=O)C(=O)N[C@@H](CCC(N)=O)C(=O)N[C@@H](CC(=O)O)C(=O)N[C@@H](Cc1ccccc1)C(=O)N[C@H](C(=O)N[C@@H](CC(N)=O)C(=O)N[C@@H](Cc1c[nH]c2ccccc12)C(=O)N[C@@H](CC(C)C)C(=O)N[C@@H](CC(C)C)C(=O)N[C@@H](C)C(=O)N[C@@H](CCC(N)=O)C(=O)N[C@@H](CCCCN)C(=O)NCC(=O)N[C@@H](CCCCN)C(=O)N[C@@H](CCCCN)C(=O)N[C@@H](CC(N)=O)C(=O)N[C@@H](CC(=O)O)C(=O)O)C(C)C)[C@@H](C)CC) [AT458]	38 nM	100%	-7.4 log M
